# Reference: publication PMC11282193, “Mst1-mediated phosphorylation of FoxO1 and C/EBP-β stimulates cell-protective mechanisms in cardiomyocytes”
# B1: WT-3xDBE (Biotin-FHRE-wild type) (dsDNA)
# DNA 1: CCTTGTTTACGGGTTGTTTACGGGTTGTTTACCC
# DNA 2: GGGTAAACAACCCGTAAACAACCCGTAAACAAGG
# B2: Mt-3xDBE (Biotin-FHRE-mutant) (dsDNA)
# DNA 1: ACTTACCCACGAGTTACCCACGAGTTACCCACCA
# DNA 2: TGGTGGGTAACTCGTGGGTAACTCGTGGGTAAGT
# What was measured:
# FoxO1 = FoxO1 (UniProt G3V7R4); experiment: C/EBP-β IP, FoxO1 immunoblot; settings: reference: C/EBP-β-WT; sites T299
# C/EBP-β = C/EBP-β (UniProt P21272); experiment: co-immunoprecipitation from cardiomyocytes; settings: reference: FoxO1(S209A); sites S215,S218,T228,S232,S243
# FoxO1-WT = FoxO1-WT (mouse, UniProt Q9R1E0 1-652); experiment: pull-down; without Mst1; EMSA: 20 mM Tris-HCl pH 8.0, 40 mM KCl, 5% glycerol, 0.4 mM DTT, 0.2 mM EDTA, 2 mM MgCl2, 1 mg/ml BSA, 20 ng poly(dI-dC), on ice 15 min, 50 ng protein; pull-down (1x buffer): 10 mM HEPES pH 8, 50 mM KCl, 2.5 mM MgCl2, 1 mM EDTA, 1 mM DTT, 0.1% IGEPAL, 4 C 2 h; settings: protein: recombinant; tags: GST removed by PreScission (general method); label: 5' biotin on sense strand; blunt
# FoxO1-WT, sequence (Q9R1E0 whole entry): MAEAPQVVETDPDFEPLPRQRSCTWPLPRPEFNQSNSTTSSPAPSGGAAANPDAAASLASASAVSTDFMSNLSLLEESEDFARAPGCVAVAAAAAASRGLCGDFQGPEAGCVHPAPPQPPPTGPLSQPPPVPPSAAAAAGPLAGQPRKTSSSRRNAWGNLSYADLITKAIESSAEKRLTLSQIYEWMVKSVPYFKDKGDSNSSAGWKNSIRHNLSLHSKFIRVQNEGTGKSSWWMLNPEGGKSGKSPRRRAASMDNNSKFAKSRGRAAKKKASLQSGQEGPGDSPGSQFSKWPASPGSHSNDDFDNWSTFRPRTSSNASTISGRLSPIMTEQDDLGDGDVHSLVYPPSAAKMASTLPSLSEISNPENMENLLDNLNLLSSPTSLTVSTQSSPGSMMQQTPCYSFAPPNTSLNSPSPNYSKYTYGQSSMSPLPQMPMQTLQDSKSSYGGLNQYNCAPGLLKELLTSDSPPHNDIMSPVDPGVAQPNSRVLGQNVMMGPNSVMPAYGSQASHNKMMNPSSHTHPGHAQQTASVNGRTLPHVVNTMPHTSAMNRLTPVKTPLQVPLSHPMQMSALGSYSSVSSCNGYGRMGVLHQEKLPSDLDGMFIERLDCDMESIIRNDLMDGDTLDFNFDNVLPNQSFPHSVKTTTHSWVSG
Molecule,binding result (FoxO1-WT),further results
C/EBP-β (from UniProt P17676) C/EBP-β-PR (T299A),–,binding against the reference (FoxO1): weaker
FoxO1 (from UniProt Q9R1E0) FoxO1-PR (six sites to Ala),–,binding against the reference (C/EBP-β): lost
B1,binds,–
B2,no binding,–
